Consider one protein from patent publication US20080260713.

The target in the data set is T1, human regulatory myosin light chain, his-tagged.
T1 chain: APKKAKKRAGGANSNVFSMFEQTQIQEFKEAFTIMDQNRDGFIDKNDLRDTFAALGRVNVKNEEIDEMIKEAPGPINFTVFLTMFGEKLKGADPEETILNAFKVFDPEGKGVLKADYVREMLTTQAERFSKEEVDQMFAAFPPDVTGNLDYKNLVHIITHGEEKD

B1: recombinant human neukinase, His-tagged (protein)
chain: MSGTSKESLGHGGLPGLGKTCLTTMDTKLNMLNEKVDQLLHFQEDVTEKLQSMCRDMGHLERGLHRLEASRAPGPGGADGVPHIDTQAGWPEVLELVRAMQQDAAQHGARLEALFRMVAAVDRAIALVGATFQKSKVADFLMQGRVPWRRGSPGDSPEENKERVEEEGGKPKHVLSTSGLQSDAREPGEESQKADVLEGTAERLPPIRASGLGADPAQAVVSPGQGDGVPGPAQAFPGHLPLPTKVEAKAPETPSENLRTGLELAPAPGRVNVVSPSLEVAPGAGQGASSSRPDPEPLEEGTRLTPGPGPQCPGPPGLPAQARATHSGGETPPRISIHIQEMDTPGEMLMTGRGSLGPTLTTEAPAAAQPGKQGPPGTGRCLQAPGTEPGEQTPEGARELSPLQESSSPGGVKAEEEQRAGAEPGTRPSLARSDDNDHEVGALGLQQGKSPGAGNPEPEQDCAARAPVRAEAVRRMPPGAEAGSVVLDDSPAPPAPFEHRVVSVKETSISAGYEVCQHEVLGGGRFGQVHRCTEKSTGLPLAAKIIKVKSAKDREDVKNEINIMNQLSHVNLIQLYDAFESKHSCTLVMEYVDGGELFDRITDEKYHLTELDVVLFTRQICEGVHYLHQHYILHLDLKPENILCVNQTGHQIKIIDFGLARRYKPREKLKVNFGTPEFLAPEVVNYEFVSFPTDMWSVGVITYMLLSGLSPFLGETDAETMNFIVNCSWDFDADTFEGLSEEAKDFVSRLLVKEKSCRMSATQCLKHEWLNNLPAKASRSKTRLKSQLLLQKYIAQRKWKKHFYVVTAANRLRKFPTSP
Turning to B1, the “rate of decrease of NADH absorbance at 340 nm (PK/LDH-coupled assay; 90 uM RLC, 1 uM CaM, 0.3 uM CaCl2, 100 nM neukinase)” value is “ΔOD/min/nmol nukinase=0.0152/min/nmol neukinase”.
